Usually EC50 stands for the midpoint of the concentration-response curve. A higher EC50 goes with a need for much substance. Broadly, the IC50 is the concentration that inhibits the measured activity by half.

For four molecules, EC50, IC50 and response results are on record in PMC12281766, “Inhibition of FAM19A5 reverses synaptic loss and cognitive decline in mouse models of Alzheimer’s disease” (Alzheimer's Research & Therapy, 2025).

The target in test [1] is T1, His-TEV LRRC4B.
T1 sequence (Q9NT99 whole entry, species assumed, looked up): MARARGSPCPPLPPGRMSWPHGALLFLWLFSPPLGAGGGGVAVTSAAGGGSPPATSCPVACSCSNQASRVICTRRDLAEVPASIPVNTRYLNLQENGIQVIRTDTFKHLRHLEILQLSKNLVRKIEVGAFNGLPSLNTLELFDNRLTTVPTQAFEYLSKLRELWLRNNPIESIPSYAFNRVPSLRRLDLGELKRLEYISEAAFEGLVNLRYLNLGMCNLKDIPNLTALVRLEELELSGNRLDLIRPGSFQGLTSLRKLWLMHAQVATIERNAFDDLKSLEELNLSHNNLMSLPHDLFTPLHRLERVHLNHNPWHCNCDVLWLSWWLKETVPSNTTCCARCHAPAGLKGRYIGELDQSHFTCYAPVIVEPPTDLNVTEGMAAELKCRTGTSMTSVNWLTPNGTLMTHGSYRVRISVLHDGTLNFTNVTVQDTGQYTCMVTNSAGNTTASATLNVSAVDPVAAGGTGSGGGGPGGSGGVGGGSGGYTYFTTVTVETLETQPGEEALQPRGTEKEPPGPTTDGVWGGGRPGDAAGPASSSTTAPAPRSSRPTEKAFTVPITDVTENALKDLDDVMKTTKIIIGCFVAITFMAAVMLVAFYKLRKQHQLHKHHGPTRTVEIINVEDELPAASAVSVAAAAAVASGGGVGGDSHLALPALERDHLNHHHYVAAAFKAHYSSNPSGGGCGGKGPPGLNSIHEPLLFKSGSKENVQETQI
The test can be described thus: ELISA; captured by His-TEV LRRC4B, detected by HRP-conjugated C-A5-Ab.

Test [2] addresses T1, His-TEV LRRC4B. The experiment in a line: ELISA; competition: LRRC4B-PTPRF complex in the presence of FAM19A5; captured by His-TEV LRRC4B, detected by HRP-conjugated anti-human IgG Fc.
Test [3] addresses T2, recombinant FAM19A5 (family with sequence similarity 19 member A5) (UniProt Q7Z5A7 44-132).
T2 construct: FAM19A5 (TAFA5), secretory protein; also called TAFA5; WT FAM19A5; source: recombinant
The experiment in a line: ELISA; competition: FAM19A5 captured by LRRC4B(36–576)-hFc in the presence of inhibitor, detected by HRP-conjugated C-A5-Ab. To be noted: both partners purified.

Test [4] addresses T3, His-TEV LRRC4B.
T3 chain: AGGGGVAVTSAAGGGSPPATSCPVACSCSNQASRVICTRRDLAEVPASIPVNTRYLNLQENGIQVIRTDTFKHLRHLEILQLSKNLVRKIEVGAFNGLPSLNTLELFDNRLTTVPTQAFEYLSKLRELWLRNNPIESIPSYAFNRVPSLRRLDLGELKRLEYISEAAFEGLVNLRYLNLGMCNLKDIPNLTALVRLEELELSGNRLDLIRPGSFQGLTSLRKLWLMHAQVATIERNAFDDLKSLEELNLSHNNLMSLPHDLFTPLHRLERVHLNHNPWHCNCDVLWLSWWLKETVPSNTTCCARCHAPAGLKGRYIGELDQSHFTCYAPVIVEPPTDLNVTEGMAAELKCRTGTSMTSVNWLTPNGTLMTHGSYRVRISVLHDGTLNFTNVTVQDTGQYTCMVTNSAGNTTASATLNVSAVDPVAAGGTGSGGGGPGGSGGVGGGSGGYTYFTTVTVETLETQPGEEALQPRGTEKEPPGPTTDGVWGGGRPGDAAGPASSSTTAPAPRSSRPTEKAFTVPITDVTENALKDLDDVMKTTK
The test can be described thus: competition ELISA (dissociation of LRRC4B-PTPRF complex). To be noted: chain shown with the change; read at the highest FAM19A5 concentration, about 1e4 nM; signal is PTPRF remaining bound to His-TEV LRRC4B, so a lower OD means more displacement by FAM19A5 …; parent: est. 0.16; read off a plot. On the technique in general: ELISA stands for enzyme-linked immunosorbent assay.

T2 sequence (Q7Z5A7 44-132): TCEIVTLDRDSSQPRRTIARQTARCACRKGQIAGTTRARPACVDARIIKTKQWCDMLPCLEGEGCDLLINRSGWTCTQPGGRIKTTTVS

With “MT FAM19A5 (R58A, R59A) (from UniProt Q7Z5A7 44-132) (natural protein)”, the half-maximal effective concentration (EC50) with His-TEV LRRC4B [1] was determined as 0.595 nM. For the molecule “recombinant FAM19A5 (family with sequence similarity 19 member A5) (from UniProt Q7Z5A7 44-132) (natural protein)”, in the test with His-TEV LRRC4B [2], the IC50 is 281 nM. The concentration giving a half-maximal response (EC50) in the test with His-TEV LRRC4B [1] stood at 0.41 nM.

B1: LRRC4B(453–576)-hFc (Fc fusion, UniProt Q9NT99 453-576, looked up)
chain: VSAVDPVAAGGTGSGGGGPGGSGGVGGGSGGYTYFTTVTVETLETQPGEEALQPRGTEKEPPGPTTDGVWGGGRPGDAAGPASSSTTAPAPRSSRPTEKAFTVPITDVTENALKDLDDVMKTTK
notes: also called WT FB-containing protein; FB protein; source: recombinant
B1: the IC50 in test [3] was found to be 8.1 nM.

B2: recombinant FAM19A5 (family with sequence similarity 19 member A5), Q7Z5A7 R58A; R59A; R125A; K127A (protein)
chain: TCEIVTLDRDSSQPAATIARQTARCACRKGQIAGTTRARPACVDARIIKTKQWCDMLPCLEGEGCDLLINRSGWTCTQPGGAIATTTVS
As to B2, in the test with His-TEV LRRC4B [4], the response is 0.52 OD (450 nm).
